Reference: patent US20170349646A1 (PANASONIC INTELLECTUAL PROPERTY MANAGEMENT, published 2017)

What was measured:
[1] = molecular target: recombinant nucleoprotein (NP) protein derived from influenza virus H1N1 to which a Flag tag was fus (influenza virus H1N1)
[2] = molecular target: recombinant nucleoprotein derived from influenza virus subtype A H1N1 (Sino Biological, 11675-VO8H) (influenza virus subtype A H1N1)
Chain of recombinant nucleoprotein derived from influenza virus subtype A H1N1 (Sino Biological, 11675-VO8H) (influenza virus subtype A H1N1) (P03466 whole entry): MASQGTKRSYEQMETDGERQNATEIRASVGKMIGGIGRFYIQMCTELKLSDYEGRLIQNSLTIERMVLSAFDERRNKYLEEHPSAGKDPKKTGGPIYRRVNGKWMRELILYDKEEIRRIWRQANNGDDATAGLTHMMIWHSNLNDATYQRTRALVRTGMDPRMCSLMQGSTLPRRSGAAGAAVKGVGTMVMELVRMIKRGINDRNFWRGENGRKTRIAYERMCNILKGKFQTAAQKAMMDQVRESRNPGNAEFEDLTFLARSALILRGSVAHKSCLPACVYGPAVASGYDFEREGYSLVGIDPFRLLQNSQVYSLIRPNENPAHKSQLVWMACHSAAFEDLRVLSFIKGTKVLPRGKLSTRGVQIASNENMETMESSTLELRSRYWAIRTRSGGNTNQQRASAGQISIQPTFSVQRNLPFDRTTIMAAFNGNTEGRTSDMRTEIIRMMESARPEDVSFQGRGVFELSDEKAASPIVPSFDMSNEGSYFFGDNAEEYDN

Chain of recombinant nucleoprotein (NP) protein derived from influenza virus H1N1 to which a Flag tag was fus (influenza virus H1N1) (P03466 whole entry): as above

B1: VHH antibody consisting of the amino acid sequence represented by SEQ ID NO: 08 (VHH)
VHH: EVQLVESGGGLVQAGDSLRLSCAASGRTFINLDMGWFRQPPGKEREYVAAITRNGAITSYADSAKGRFTISRDNAKNTVSLEMNSLKPEDTGVYYCAAYSISNYGSGWYKPDYWGQGAQVTVSS
For B1, the Kd [1] was 224 pM and the “EC50 (read off the curve)” value [2] was roughly 8 ng/mL.
